Earlier results in patent US20060198900A1, “Bioactive Agent Compositions for Repair of Cell Injuries” (Nutritional Bioscience Limited, priority 2004, published 2006).

System: gastric damage
Conditions: Playford et al. 1995

B1: hSP: recombinant human spasmolytic polyptide (hSP) (protein, UniProt Q03403 24-129, looked up)
Trefoil factor 2: EKPSPCQCSRLSPHNRTNCGFPGITSDQCFDNGCCFDSSVTGVPWCFHPLPKQESDQCVMEVSDRRNCGYPGISPEECASRKCCFSNFIFEVPWCFFPKSVEDCHY
reduction of gastric damage: 50%
